Changes are numbered by the printed parent chain.
Tests used:
human CCL17 = molecular target: T1, human CCL17 (human, UniProt Q92583 24-94); test: ranking ELISA of Fab variants with bt-human CCL17
T1 construct: Biotinylated in the Fab ELISAs; also called huCCL17; Bt-huCCL17
T1 sequence: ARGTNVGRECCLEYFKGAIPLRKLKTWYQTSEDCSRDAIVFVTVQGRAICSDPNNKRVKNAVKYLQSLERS

cyno CCL22 = molecular target: T2, cyno CCL22 (cyno, UniProt O00626 25-93 (human entry), limits assumed); test: ELISA, Fab captured by anti-kappa, biotinylated chemokine, streptavidin:HRP
T2 construct: Biotinylated in the Fab ELISA; also called cCCL22; CCCL22
T2 chain: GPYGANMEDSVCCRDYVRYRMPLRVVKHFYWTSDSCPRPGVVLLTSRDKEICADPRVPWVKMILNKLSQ
Procedure: (§1) Briefly, Maxisorp 96 well plates were coated with 1 μg/ml Goat anti-human Kappa (Southern Biotech). Semi-purified Fab was added to each plate. […] Proteins bound to the captured Fabs were detected using Streptavidin:HRP.

cyno CCL17 = molecular target: T3, cyno CCL17 (Macaca fascicularis (cyno), UniProt Q8HYP9 24-94 (rhesus entry)); test: as above
T3 construct: Biotinylated in the Fab ELISAs; also called cCCL17; cCCL-17
T3 sequence: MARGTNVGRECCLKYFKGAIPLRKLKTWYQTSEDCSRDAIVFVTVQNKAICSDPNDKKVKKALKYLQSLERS
Procedure: as §1

B1: C17F319 variant W→T at HCDR3 position 100a (Kabat) (Fab, V domains shown)
VH: EVQLVQSGAEVKKPGESLKISCKGSGYSFTSYWIGWVRQMPGKGLEWMGIIDPSDSDTRYSPSFQGQVTISADKSISTAYLQWSSLKASDTAMYYCARVGPADVTDSFDYWGQGTLVTVSS
VL: DIVMTQSPDSLAVSLGERATINCKSSQSVLLSPWNSNQLAWYQQKPGQPPKLLIYGASTRESGVPDRFSGSGSGTDFTLTISSLQAEDVAVYYCQQYYLIPSTFGQGTKVEIK
Human CCL17
  binding result: binds

B2: F24 (Fab, V domains shown)
VH: B1 VH with T105W
VL: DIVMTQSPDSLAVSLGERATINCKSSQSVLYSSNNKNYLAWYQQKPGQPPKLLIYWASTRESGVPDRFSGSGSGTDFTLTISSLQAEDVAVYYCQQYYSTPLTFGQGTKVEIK
notes: Semi-purified Fab with a His tag at the C-terminus of the heavy chain; also called C17F24
Cyno CCL22
  binding result: no binding
Cyno CCL17
  binding result: binds

B3: C17F319 variant W→R at HCDR3 position 100a (Kabat) (Fab, V domains shown)
VH: B1 VH with T105R
VL: B1 VL
Human CCL17
  binding result: binds
